Test results taken from the supplement of paper PMC7877785.
± gives the uncertainty stated by the source.

Assay: self-splicing fitness, log relative to wild type (ln ratio); higher = more splicing; Tetrahymena group I intron in knt gene, E. coli kanamycin selection, DiMSum; sequences stand for … in CUCUCU…GGAGGGAAAAGUUAUCAGGCAUGCACCUGGUAGCUAGUCUUUAAACCAAUAGAUUGCAUCGGUUUAAAAGGCAAGACCGUCAAAUUGCGGGAAAGGGGUCAACAGCCGUUCAGUACCAAGUCUCAGGGGAAACUUUGAGAUGGCCUUGCAAAGGGUAUGGUAAUAAGCUGACGGACAUGGUCCUAACCACGCAGCCAAGUCCUAAGUCAACAGAUCUUCUGUUGAUAUGGAUGCAGUUCACAGACUAAAUGUCGGUCGGGGAAGAUGUAUUCUUCUCAUAAGAUAUAGUCGGACCUCUCCUUAAUGGGAGCUAGCGGAUGAAGUGAUGCAACACUGGAGCCGCUGGGAACUAAUUUGUAUGCGAAAGUAUAUUGAUUAGUUUUGGAGUACUCGUGGUCG
Outline: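 Pooled colonies went to amplicon sequencing on an Illumina HiSeq 2500 after six replicate transformations. The plates were LB agar with 100 μg/mL carbenicillin, 50 μM IPTG and 0.2% rhamnose, with or without 25 μg/mL kanamycin, incubated overnight at 37°C or 30°C. The E. coli BL21(DE3) library had all eight P1ex-region intron nucleotides randomised, the intron placed in the knt kanamycin-resistance gene on pET-22b(+). DiMSum fitness is the error-weighted combination of replicate fold changes, kanamycin against none, normalised to wild type.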

Sequence	self-splicing fitness (ln) (30 °C)	self-splicing fitness (ln) (37 °C)
ACAAAGCAAUAUUACGACUG	-0.48 ± 0.06	-0.066 ± 0.09
ACAAAGCAAUAUUACGAGAA	-2.54 ± 0.28	-2.87 ± 0.35
ACAAAGCAAUAUUACGAGAC	-3.61 ± 0.21	-2.57 ± 0.2
ACAAAGCAAUAUUACGAGUG	-1.37 ± 0.068	-0.772 ± 0.081
ACAAAGCAAUAUUACGCAGU	-3.46 ± 0.2	-2.78 ± 0.21
ACAAAGCAAUAUUACGCGAC	-2.02 ± 0.11	-1.16 ± 0.12
ACAAAGCAAUAUUACGCUAA	-2.51 ± 0.13	-1.14 ± 0.086
ACAAAGCAAUAUUACGCUGA	-2.65 ± 0.2	-1.14 ± 0.15
ACAAAGCAAUAUUACGGAAA	-2.26 ± 0.18	-1.7 ± 0.21
ACAAAGCAAUAUUACGGAAG	-2.47 ± 0.091	-1.61 ± 0.11
ACAAAGCAAUAUUACGGAGU	-3.79 ± 0.15	-2.9 ± 0.17
ACAAAGCAAUAUUACGGCAU	-0.565 ± 0.046	0.328 ± 0.058
ACAAAGCAAUAUUACGGCCC	-0.546 ± 0.13	-0.479 ± 0.2
ACAAAGCAAUAUUACGGCUA	-0.14 ± 0.054	-0.0776 ± 0.062
ACAAAGCAAUAUUACGGGGA	-2.95 ± 0.14	-1.05 ± 0.088
ACAAAGCAAUAUUACGGUUA	-1.58 ± 0.092	-0.719 ± 0.078
ACAAAGCAAUAUUACGGUUU	-1.71 ± 0.076	-0.493 ± 0.083
ACAAAGCAAUAUUACGUACC	-1.13 ± 0.1	-0.353 ± 0.12
ACAAAGCAAUAUUACGUAUA	-2.79 ± 0.2	-2.09 ± 0.22
ACAAAGCAAUAUUACGUUAU	-2.81 ± 0.089	-1.5 ± 0.089
ACAAAGCAAUAUUACGUUUG	-2.98 ± 0.1	-1.65 ± 0.12

Sequence	self-splicing fitness (ln) (30 °C)	self-splicing fitness (ln) (37 °C)
ACACAGCAAUAUUACGAACA	-1.69 ± 0.082	-1.18 ± 0.079
ACACAGCAAUAUUACGACGC	-0.0854 ± 0.07	0.622 ± 0.093
ACACAGCAAUAUUACGAGGC	-3.49 ± 0.17	-3.41 ± 0.29
ACACAGCAAUAUUACGAGUU	-3.49 ± 0.14	-2.18 ± 0.14
ACACAGCAAUAUUACGAUCA	-1.39 ± 0.084	-0.858 ± 0.095
ACACAGCAAUAUUACGAUGU	-3.46 ± 0.1	-1.18 ± 0.08
ACACAGCAAUAUUACGCCGC	-3.21 ± 0.34	-1.68 ± 0.16
ACACAGCAAUAUUACGCCUA	-0.959 ± 0.065	-0.392 ± 0.067
ACACAGCAAUAUUACGCGCU	-0.741 ± 0.059	-0.491 ± 0.068
ACACAGCAAUAUUACGCUCU	-0.902 ± 0.069	-0.159 ± 0.075
ACACAGCAAUAUUACGGCCG	-0.675 ± 0.095	-0.395 ± 0.12
ACACAGCAAUAUUACGGCUA	-0.536 ± 0.071	-0.218 ± 0.074
ACACAGCAAUAUUACGGUCC	-1.31 ± 0.073	-0.868 ± 0.089
ACACAGCAAUAUUACGGUUC	-3.81 ± 0.14	-2.03 ± 0.12
ACACAGCAAUAUUACGUAUC	-3.71 ± 0.15	-2.8 ± 0.15
ACACAGCAAUAUUACGUAUG	-2.32 ± 0.076	-1.9 ± 0.098
ACACAGCAAUAUUACGUCAC	-3.22 ± 0.16	-2.86 ± 0.27
ACACAGCAAUAUUACGUCGU	-2.67 ± 0.11	-1.58 ± 0.12
ACACAGCAAUAUUACGUCUC	-3.26 ± 0.099	-1.25 ± 0.08
ACACAGCAAUAUUACGUCUG	-1.65 ± 0.055	-0.547 ± 0.061
ACACAGCAAUAUUACGUGCA	-0.241 ± 0.051	-0.395 ± 0.063
